Data: patent US20230390418A1, “[…] XII ANTIBODIES AND ADMINISTRATION THEREOF” (REGENXBIO INC., priority 2020, published 2023)

Key:
[1] = tested on: carrageenan-induced paw edema; assay: Carrageenan paw edema model in mice (paw volume, plethysmometer); assay type: in vivo; conditions: C57BL/6 mice, vectors 21 days, Diclofenac 30 minutes prior to carrageenan
From the text: Inflammation models induced by carrageenan are frequently used acute inflammation models. Carrageenan (Cg) is a strong chemical agent that functions in stimulating the release of inflammatory and proinflammatory mediators, including bradykinin, histamine, tachykinins, reactive oxygen, and nitrogen species. Typical signs of inflammation include edema, hyperalgesia, and erythema, which develop immediately following the treatment of carrageenan. This example evaluated the effect of AAV-mediated gene delivery of Lanadelumab on carrageenan-induced paw edema in mice.
In total eighty young adult (8-9 weeks old) male C57BL/6 mice were used for this study. Paw edema was induced by a single subcutaneous (s.c.) injection of 30 μL of 0.7% or 1% carrageenan solution. Test vectors and positive control Diclofenac were administered at 21 days and 30 minutes prior to carrageenan treatment. Blood was collected before vectors injection and at 7 and 21 days post injection from mice in groups 1, 3, 4, 5, 7 and 8. Paw volume was measured using a digital Plethysmometer prior to carrageenan injection, and at 2, 4, 6, 8, 24 and 48 hours after injection. All animals were sacrificed 48 hours after carrageenan injection. Liver and paw specimens were also collected at the necropsy.

[2] = molecular target: activated human plasma kallikrein (Enzyme Research Laboratories) (human) (UniProt P03952); assay: cell-based or functional assay
[3] = molecular target: T1, activated human plasma kallikrein (Homo sapiens, UniProt P03952); assay: In vitro pKal functional assay (fluorogenic PFR-AMC substrate); assay type: biochemical
T1 construct: purchased Enzyme Research Laboratories
T1 sequence (P03952 391-638 limits assumed): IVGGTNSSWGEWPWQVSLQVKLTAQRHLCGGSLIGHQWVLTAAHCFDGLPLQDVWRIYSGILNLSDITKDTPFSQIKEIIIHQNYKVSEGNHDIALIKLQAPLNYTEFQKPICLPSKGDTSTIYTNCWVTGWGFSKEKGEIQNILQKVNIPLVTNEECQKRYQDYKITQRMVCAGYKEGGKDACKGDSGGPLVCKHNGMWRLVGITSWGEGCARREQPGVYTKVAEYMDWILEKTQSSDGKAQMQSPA
T1 sequence (P03952 20-390 limits assumed): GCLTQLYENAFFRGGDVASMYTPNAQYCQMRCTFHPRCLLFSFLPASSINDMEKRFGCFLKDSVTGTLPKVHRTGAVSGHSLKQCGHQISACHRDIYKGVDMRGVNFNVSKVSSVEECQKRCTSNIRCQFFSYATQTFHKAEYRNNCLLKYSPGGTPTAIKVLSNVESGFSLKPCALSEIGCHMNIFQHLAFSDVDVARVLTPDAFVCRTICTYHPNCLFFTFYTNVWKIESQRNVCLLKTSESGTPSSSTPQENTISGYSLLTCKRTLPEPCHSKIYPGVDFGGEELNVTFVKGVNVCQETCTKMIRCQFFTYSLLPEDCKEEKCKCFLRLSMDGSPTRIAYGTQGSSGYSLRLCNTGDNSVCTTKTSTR
Procedure: In order to measure pKal function of lanadelumab derived from mouse serum following AAV-lanadelumab administration, a fluorescence-based kinetic enzymatic functional assay was performed. First, activated human plasma kallikrein (Enzyme Research Laboratories) was diluted in sample dilution buffer (SDB; 1×PBS, 3% BSA, 0.1% Tween-20) to top concentration of 100 nM. This pKal was two-fold serially diluted for a total of 12 concentrations in the dilution series (100 nM-0.05 nM). From each dilution, and in duplicate, […], was placed in one well of a 96-well, opaque flat-bottomed plate along with […], of SDB. […] The samples were immediately run in kinetic mode for AMC fluorescence at excitation/emission wavelengths of 380/460 nm, respectively, for 3 hours using a SpectraMax 3 fluorescent plate reader.
The signal-to-noise ratio for each pKal concentration RFU (last RFU fluorescent value chosen) was calculated by dividing its RFU by background PFR-AMC substrate fluorescence. […] Antibody-pKal mixture was then given PFR-AMC and immediately run in kinetic mode for AMC fluorescence at excitation/emission wavelengths of 380/460 nm, respectively, for 3 hours using a SpectraMax fluorescent plate reader.
In vitro pKal functional assay. […] Total antibody concentration was measured using a Nanodrop spectrophotometer, with OD absorbance=280 nm. […]

Molecule: O=C(O)Cc1ccccc1Nc1c(Cl)cccc1Cl [diclofenac, Diclofenac]
- Paw volume versus vehicle control ([1]; 0.7% carrageenan model): a significant decrease on paw volume was observed only at 4 and 24 hours post injection
- Paw volume versus vehicle control ([1]; 1.0% carrageenan model): significantly decreased the paw volume at 2, 4, 6, 8 and 24 hours post carrageenan injection

Molecule: Lanadelumab (GenScript) (antibody)
- suppression of pKal activity (PFR-AMC fluorogenic substrate, kinetic AMC fluorescence) [2]: 0.1 nM

Molecule: Vectorized lanadelumab derived from mouse serum following AAV-lanadelumab administration (antibody)
- percent reduction in pKal activity (serum diluted 1:25, day 49 post-administration against day -7; PFR-AMC assay) [2]: 50%

B1: lanadelumab: human anti-pKal (anti-kallikrein) IgG antibody; purified (GenScript) or produced in serum via AAV-mediated gene delivery (antibody)
heavy: EVQLLESGGGLVQPGGSLRLSCAASGFTFSHYIMMWVRQAPGKGLEWVSGIYSSGGITVYADSVKGRFTISRDNSKNTLYLQMNSLRAEDTAVYYCAYRRIGVPRRDEFDIWGQGTMVTVSSASTKGPSVFPLAPSSKSTSGGTAALGCLVKDYFPEPVTVSWNSGALTSGVHTFPAVLQSSGLYSLSSVVTVPSSSLGTQTYICNVNHKPSNTKVDKRVEPKSCDKTHTCPPCPAPELLGGPSVFL
light: DIQMTQSPSTLSASVGDRVTITCRASQSISSWLAWYQQKPGKAPKLLIYKASTLESGVPSRFSGSGSGTEFTLTISSLQPDDFATYYCQQYNTYWTFGQGTKVEIKRTVAAPSVFIFPPSDEQLKSGTASVVCLLNNFYPREAKVQWKVDNALQSGNSQESVTEQDSKDSTYSLSSTLTLSKADYEKHKVYACEVTHQGLSSPVTKSFNRGEC
modifications: Lanadelumab Heavy; misc (227)..(230) amino acids 227 to 230 are present or absent; misc (231)..(236) amino acids 231 to 236 are present or absent; misc (237)..(247) amino acids 237 to 247 are present or absent; Lanadelumab Light
notes: human anti-pKal (anti-kallikrein) IgG antibody; purified (GenScript) or produced in serum via AAV-mediated gene delivery
- Suppression of human pKal function by purified total IgG from mouse serum ([3]; IgG purified from day 49 post-administration serum versus day −7): suppressed human pKal function
- Lowest in-well concentration with noticeable suppression of pKal activity ([3]; purified antibody, defined enzyme concentration): 0.1 nM
- Paw volume versus vehicle control ([1]; 1.0% carrageenan model): significantly reduces the severity of inflammation
